The data set is described as follows: soluble on expression in E. coli; label from the status in PepcDB or PDB records.
As for “MAHHHHHHMLRHLPPPRAHPSPAFCHTHARMHLLQAPPSPHPHPTRTPLQTLCVILPPAMQVELSFIFPHALKELPVSFFVPLSSQRPRTVANLFFMCSGQLPLPAELLSALHLTEAEVAYATPAAAKAAGLLPLSDSAVVRIDKASVMEIGSSTTKSIFGGFISDERVTLPAGTAARGQSIAATMSSLKAGTLLYGNLGMPNTQASRYYILLEPVTTPEQRHEFAGFAPLGMVTGGLAELKRAASQTAVQPRTLVPKKKVVVSGCRMQLDYTYLSSSTEASASVSLGGLCDGTGQDAGKQRPTEPHERVAGRVRRRDDDGDEAKQADPRRALDGDGNTTDPGAAPLHSSGFFKISARFPKAAVAASGAGPSLKRRRAEAFVVGDDGVPTLRTTAIAPGEQVGGDGTAEPFEFFKAQQDAFMNDIEGIKDAQLQRFNRKARRIMKSRRAWASSSSSGRHANSQQHSSSSGTHVTGSGALSKTGAKKTKPKRY”, the “soluble on expression in E. coli” value is “not soluble”.

Take “MAHHHHHHMLRRTQRWLLLNVSGESPSFRSKPVRNLQMDVQMSPYKEQFKDYWSTPVPWADREYGEKPKLGAPIPTRRAATAIVVGKNKHVAVDKVERGEDNDYKVLMMFREGKNRFVRDQFIFPSFPISLEDSSEDWEKILRRRGVKTAWNDLHHRLCAMRALFAQMNILLVPKEGGGLVEVEGPPGPKKWHLLVHSQPKAMKNLVDVLELPMETCLSQLLPFRCITTPTTETFRFDNLVYLVPFEKIPDVRFTISTVGEKLVWVSPMEAMARFNAGIMNMPTPNIIAISELNNECPIFADVTKRKPHDDYRSILPELYRHSQTKVATVLLPGDLMHPNTTEEDKAERYIRRFVYEKDYPFGIRAVFEERPATTEEMNEPLIQEAPKLLEEANEMDMVYADTPYPKREKQPGEIGRTRFPVPSYSFQEGAENEEGVIPVRNRNIESVGDLYSQTN”: the “soluble on expression in E. coli” value is given as “not soluble”.

As for “MAHHHHHHMLRRVIVGGVCRRASPSIAGRMVAARYAATIPTSTVASTTMSSSPTSRDDASTRAVVSEVPNLSFLASKTVLAETVEQTIEVCEALLNEIPKVKGAKEKHDLIDSTSNVLCLLLDPCEFVRQIHPDEEYKKHAAYAFQKGYEYMSKVNSRRDLYDVIVELDSPEGRKQLDDEEIKNVVQLKRDMESNGIHLSDALREKVTEMNIEKEDLAMRFLTEQGAKNPFATLRYLLRCRYELAKLLGFESYAEQQLRGTMLGNQQSVWHFLCGIAHKYRSAAEKELNLIRQNVGEVRNRQNITDDTRARVAHSLRRDAEPAKAEEYFSVANCIRGIQCLCSEVFGLRLEEVPFEREEVFNPDAKKFYVYDENRAFLGIIVLDMYASDMKYCQAGHLTLQLGCKPHQEALARVGLKLPERQYPVVVLTCNVGALTPAQRLPNGRFDDESTLMHPSEVTTVFHEFGHAMHTIFGQTKVQNLAGTRSSIDFVETFSQLFEHFLTSHEFLRLWAHRINTREPISFDIVMKRNAAADMFKHLDMLDQVVLSAVDQTLHGPQPYTVYFPHGQNGHLGKRTLGDSSDYGRGTYNLAKILIDVCTPLSIVTPTESGVLGTLSFEHLSGYPAGYYGYLYSLSVARRIWSKKFEKDPLNRAAGKELVQEVMRHGAACNPVEVIEKYLGDNLDEIDIWA”, the “soluble on expression in E. coli” value was “not soluble”.

On to “MAHHHHHHMLRYTPMWRCSAAAMQTLSAWLTDLAEESMAVPSATAADLQTRQNDGQGPTRKTPAQLWRELEDAATHANALRETDTLFSILQCLLLKQQYPTDVHAWARLAKQLLPYSGIEQKSVLHYPGRSDASYRRDGHPGGSSLANLSSSSDPVLTDADGGFGDDGASRRGGGGARRGGEYAVPYSLYPSRETLLLSGGVVPLSARVPCGDGRAISLFVRGFTRFVEGQLGVQPHTQLTSELLQVVKDVSGAVTEALAVNADSLQLELLLPALLDYMELLHVLDLRTATVAACGPLATEEERRDAAGATVRDDEPNGHGRSSPPRPSKPTRFLQNMVHDLAQNAMAGAARGARVVLYYLNECFAAVVEAYQADAAATFTDKMYWAQQRYLLTLTRACMWAISQHYTSATTAALSAASGSVASSPSPHVQGLRPTVATADLVATAPMNAHIQALYDHIDVLFQRNTHADNPLHLTDEEVAQLKEIHTAALLRALRIEEAAPDAYLRRALEVVDRVPASMAIEGELIAGKVRLLELDSDTVDEEGRAAIYDDLLTSLRSLVEMRPRFLRHNGAHHAAGGGAAAAASASTPADGGGGGGEEDEGDGEQLRLDAATQAILQRAHFDVITAFCAAHKEEWSNEAYNILVAHKYHGVKITNDLIRPVLEVFSRRGDCRVFSLVDLCVLYSNEPIDMHTIALLFRTCAAAGDHHRARTFLQLVNEIIHGFLVKCPASVKESLQELKLLDPPPRHLFVSTEDDLVQSALGEQQRTVRRLPTGS”, for which the “soluble on expression in E. coli” value was “not soluble”.

“MAHHHHHHMLSSAAPKRYKFDQRGNLTEVNFLACKSVVPPRTYVHSKNSLTCSTSVIPELHQTAHHCKGRSGANGTSGTNGKSGSTSKMAMSQENIFEAEAISTNAYAHGGGPSSLHSMNMVHSVSSVGSGGNDPSQYVPNQCGNMNMMGTGLSGHEMNNNAPLLFVDGAPYCADDAGQGIDPGVVAVSNALFAYNSAFQSIPIKTSPNVFRRRTKGEGNSEWCNAFVTRVDPCECGDPDEQFKPYEVTKYYDDGQVKTVFNFDQDSAPQEQLM”: the “soluble on expression in E. coli” value is “soluble”.

Consider “MAHHHHHHMLSTACRAPVRGRAYCGCNRGLVSFSFYSTFAGDRRGAGGDETSGANSGGSGDSGETPKASKATVEERRRMAKSWENAFFGRVHYEPGMHDRYQAALDAEVEEHATLDEKDRCDRLPNWPDDEETPLHEFLQLSDAAKKRYIVRRLTMGERRINYAPYYGSLLMMQHLNLGELMISDAEHLVRESGWMTECVASKIEAVRECASKIKFEYDLD”, for which the “soluble on expression in E. coli” value is listed as “not soluble”.

Consider “MAHHHHHHMLYHYDILKYNSNHEYNNCSYFKNTFVHFFDYIYNIKMMKEYNDLKAKICINKEFNILFNILNKMNYSFAYRDKKLIKMNDCLYHTYHIIGIKKISSIGYIFNFKNELNDNFSKVLKTKISNILSIEDIYFLFNRFFYFLLMYIRKFCCFSNKKDTNIPQNEAETFVNSVCNCKQDNCCYKIKTIVLINNIQ”, for which the “soluble on expression in E. coli” value is listed as “not soluble”.

On to “MAHHHHHHMNEPSSGETNLQGGEDDVSAKGRSYGGAGGEKDAESNMNPSDNNTSSAVEDNHENSAQKEGADELGEDALNEMFDDFLKDIENISSNMENQQEGKKLNKGDAESEIARLLANKNSSPFEIFGIHEDVDMEKIKSKYRRLSVLIHPDKCKIEKASEAFHILNKAYEELKKDDIKEQYKSVYETAKKNIIKKLNLKKIRNELNEYLNKNEEEYEITKEVQLLINEECENLLKVQKEKMEYAQKCKLANLQYAKEKEEEKMKEELKKEEERKLWIEGREERVNNWKNYKKDNLKTEKEFHIYKNVGKKKEERTEEEKEKLKRISTTNPMEK”, for which the “soluble on expression in E. coli” value is recorded as “soluble”.

For the sequence “MAHHHHHHMNESSIYIYNLTRNVSINHLKEIFMNFGTLKDVQYVTYVEESMFHEKGDGKDGDKKEDNDDKEEDDDKEEDNNKEEDNDKEEDNDKEEDNDNNDDNNDDNNDDNNDDGDDNDDNHICVHIKYENSKEAQAAKEFMDGGQIDGKIISVKYKINHKYIKTYTKKKKEKKKKN”, the “soluble on expression in E. coli” value is listed as “not soluble”.

Regarding “MAHHHHHHMNIPNPRVFLDIAIGGRNAGRMIFELFMDKLPITCENFRCLCTGETGLGYYLKPRWYKNSPIHRIVTDFMFQGGDFNFGNGYGGESIYGQYFRNEKFIYKHSKRGILSMCQTRIKHTNNSQFFVTFKSCPWLDKRHVVLGHLEYGFDTLSFIEEQGTLIGKPKKQVFIYNCGVIPLDKIKYKSADNSDDDYIIPDIEKPLLEKDISINENSDFNELRNMYKYNKHF”, the “soluble on expression in E. coli” value is “not soluble”.

In the case of “MAHHHHHHMNKEHILFDSFPLTFLSDEVDCSNFEDEQERTYRERIAQMTEELKSLRMEITEKHSIRSMLEEKVAMLQNEEQTKQNNLKYVLNFCDKQMYERELGNFHNHLEQLRKQIQNSNCKIKLLIEKEFKVRKQLQLRYMKLYDLLNERVRYILGDYVKHRKCACAIFAYRQEGQR”, the “soluble on expression in E. coli” value is reported as “not soluble”.

Consider “MAHHHHHHMNNSVTRKIEKQILEALKDKENDIDKEIRKYEILERKVYDENDEELEFIKNKRLEELKNKHKEKLTLLKKGHGTYKEVLSEKEFFEICKSSKNVCCHFYRNTTWRCQYMDKKLIDLSSKYWNINFIKINAEKSPFLCERLKIWCIPTVMLIQNGKTEHSIVGFDELGGDNFSEQTLVNVLRKWRLIETKENDD”, for which the “soluble on expression in E. coli” value is “not soluble”.

For “MAHHHHHHMNVAKREFIRGMMAHYRASLPPPEHSVVIHELQKRVLDIGMLAVNKAHVELFGSHVSGFCTPHSDADISLTYRNFSPWLQGMERVDEQNNKRMTRFGKEASAMGMEDVRYIRARIPVVQFTDGVTGIHCDVSIGNIGGVENSKILCAIRQVFPDFYGAYIHLVKAWGKAREVIAPERSTFNSFTVTTMALMVLQELGLLPVFSKPTGEFGELTVADAEMLLQEFKLPPIYDSLHDDDEKLGEAVFFCLQRFAEYYAKYDFSAGTVSLIHPRRHRTVYERVVRRHLELLGSRKRLEWEKHIAEHKEDGPLDENDFSASMQNETTQRPSNSPYVVEDFVNYVNCGRRVQASRVRHIQQEFNRLREMLIDKESELKFDEVFRESDTVPRFQGFEGVGTRDHRVKTFRPQ”, the “soluble on expression in E. coli” value is “not soluble”.

Turning to “MAHHHHHHMPSRRFNARRGMIAARRGFFTATSPCRQSRLVPFHELFAPLSSSSLPSSPRRFPVHSVCVDPPLGTLGEPSRSQGAGAEDGSPLSWLRENLQLLEDGRKSLNERRASMPEGSPQWPRYMFPSHCCEYIYDPSNDSKLAFVTSDNYCHLCHEPVEVAIQHCAWWDHVTRLAAIRLIAIYPRRWSPVAVLREANEVLPTAVMVSPRPHPFLSFSEAVDTDDVSLMDMSSCYVFEREAVVRRAELAAILRVLCTAKDADSCDDAEQRISSIIPVLRESLFLSANGTPAASSGERTFRAYISRQISVFLPPMAPEPTTRIQQRCWGRKNLEIMFDLLGVASLQRIAGAPVEAVTKNEKAAVLRQIIYELATVLSEGDAEFAETSCAKINGTSSVDAEVQTRLLAEMALQRLAHELIHLHTMLLMDQAYETYVKLGYPSEGMLEKSGFC”, the “soluble on expression in E. coli” value was “not soluble”.

On to “MAHHHHHHMPTTSMQAECDKIRSSGNECRRKFSGGNLLVVATDMDGTILDPKHRLTERTKDTLYELSTRGVHIIFATGRHHSCVHATRRDLLEHYKRRSTARGVPDSPTTGYDGFYIISSNGARVHNPNGDLIFLRDLDSDVVRVLYERFGIRDHGDDPRKVISVSAYQTEKWWINRTIMSDEESLAMFGVVPELHPDLKEFPTTGVGKVCFRCYDRDILHQYEAEIKEIFHGRATAVMSSEICLDVMAAEVSKAAALREIGRILNFDPEREAIAFGDSMNDGDMLCSVAKGCIMDNGQSRLKESLPHLEVVGSSSEDGVARKLQEVFQIFHE”, for which the “soluble on expression in E. coli” value was “soluble”.

Consider “MAHHHHHHMQLPRKRGTQRRRAHRRNWRDCTSLCTMRGGAMRWNFRTAWSERKQGTGMGVHEGKPEQSWTYKKADDAIKKNDAVQQFGAAPPVLMVLASDKGWPYSWNTIQDLPKDFFVNCEVDRAWQIVKGDLTAWFSPHGGTDFTPKRRVLIGTPGIGKSVAAGSYLLY”, for which the “soluble on expression in E. coli” value was “not soluble”.

As to “MAHHHHHHMQMNSYAGGYTTHNRSYAAMVPPPMPMPPGWEMAYTPNGEIYYIDHNTRTTHWQLPAEYTMQQPVCSYRGPQRQRRGIDRSKAKTKMCMNIENGGTCSYGANCAFAHSSEELSTHPHFNSAPDAGYSAK”, the “soluble on expression in E. coli” value is given as “not soluble”.

Turning to “MAHHHHHHMQRMRRIGREEEAARLVWNHVSHCSSALLRQCIRRPNLLEEVTVALCRTMHRGISGRKDSWMGHRSLAVLRSGAALRQFTPALCIPLCAAALDCGVHFATVQQHVAEIYRWDERTERWVLNMVRLIADCHSALMRVPLNCSLHSSYMRGLVQRVAYELPTLSSTCSIEVQVPSRNKLLALWTIVNDDVANGRLRQLTCQLFLDPVARSAFKEMRLADEVDNCNSGTDGGGGSKCRVPRSTLKGLLNEEVFVSVAVNCTTEHAFAIFMNAFLSTRQARDKLRYMHLVLSEMPFESTDICPRCTTETGNCEVS”, the “soluble on expression in E. coli” value is reported as “not soluble”.

Source of the values: the DeepSol protein solubility set.
